{"source": "IntAct's records for PubMed 24105263", "parents": {"B1": {"name": "Vesicle-associated membrane protein-associated protein A (Homo sapiens), Q9P0L0 (parent)", "chain": "MASASGAMAKHEQILVLDPPTDLKFKGPFTDVVTTNLKLRNPSDRKVCFKVKTTAPRRYCVRPNSGIIDPGSTVTVSVMLQPFDYDPNEKSKHKFMVQTIFAPPNTSDMEAVWKEAKPDELMDSKLRCVFEMPNENDKLNDMEPSKAVPLNASKQDGPMPKPHSVSLNDTETRKLMEECKRLQGEMMKLSEENRHLRDEGLRLRKVAHSDKPGSTSTASFRDNVTSPLPSLLVVIAAIFIGFFLGKFIL", "partner": "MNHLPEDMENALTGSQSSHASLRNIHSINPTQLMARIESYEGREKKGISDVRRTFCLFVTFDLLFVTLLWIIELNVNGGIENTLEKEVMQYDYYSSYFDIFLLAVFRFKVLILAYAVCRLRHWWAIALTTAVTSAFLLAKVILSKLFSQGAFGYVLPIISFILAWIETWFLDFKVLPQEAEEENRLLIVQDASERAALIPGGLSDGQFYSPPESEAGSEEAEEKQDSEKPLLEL"}, "B2": {"name": "Vesicle-associated membrane protein-associated protein A (Homo sapiens), Q9P0L0 (parent)", "chain": "B1 chain", "partner": "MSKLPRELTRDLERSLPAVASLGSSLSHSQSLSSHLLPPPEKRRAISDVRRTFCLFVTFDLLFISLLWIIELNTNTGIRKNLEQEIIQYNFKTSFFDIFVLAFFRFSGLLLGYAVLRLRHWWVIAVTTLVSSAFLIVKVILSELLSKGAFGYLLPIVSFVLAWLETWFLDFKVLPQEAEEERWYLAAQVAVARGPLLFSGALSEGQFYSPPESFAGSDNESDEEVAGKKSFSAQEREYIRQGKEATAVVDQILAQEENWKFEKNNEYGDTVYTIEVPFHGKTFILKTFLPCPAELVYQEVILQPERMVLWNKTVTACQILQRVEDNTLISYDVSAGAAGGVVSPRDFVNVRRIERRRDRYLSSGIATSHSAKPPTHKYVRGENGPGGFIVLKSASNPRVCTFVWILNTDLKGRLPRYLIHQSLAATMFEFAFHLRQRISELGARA"}}, "data": [{"variants_of": "B1", "settings": "with STARD3NL", "values": [{"variant": "MASASGAMAKHEQILVLDPPTDLKFKGPFTDVVTTNLKLRNPSDRKVCFKVKTTAPRRYCVRPNSGIIDPGSTVTVSVMLQPFDYDPNEKSKHDFDVQTIFAPPNTSDMEAVWKEAKPDELMDSKLRCVFEMPNENDKLNDMEPSKAVPLNASKQDGPMPKPHSVSLNDTETRKLMEECKRLQGEMMKLSEENRHLRDEGLRLRKVAHSDKPGSTSTASFRDNVTSPLPSLLVVIAAIFIGFFLGKFIL", "note": "[K94D;M96D]", "effect of a mutation on the interaction": "decreasing interaction strength"}]}, {"variants_of": "B2", "settings": "with STARD3, Q14849-1", "values": [{"variant": "MASASGAMAKHEQILVLDPPTDLKFKGPFTDVVTTNLKLRNPSDRKVCFKVKTTAPRRYCVRPNSGIIDPGSTVTVSVMLQPFDYDPNEKSKHDFDVQTIFAPPNTSDMEAVWKEAKPDELMDSKLRCVFEMPNENDKLNDMEPSKAVPLNASKQDGPMPKPHSVSLNDTETRKLMEECKRLQGEMMKLSEENRHLRDEGLRLRKVAHSDKPGSTSTASFRDNVTSPLPSLLVVIAAIFIGFFLGKFIL", "note": "[K94D;M96D]", "effect of a mutation on the interaction": "decreasing interaction strength"}]}]}
